Consider one molecule from patent publication US20040154051A1 (SYNGENTA PARTICIPATIONS, published 2004).

The target in the assay is T1, NIM450 bait (first 450 amino acids of the NIM1 protein, LexA fusion) (Arabidopsis, UniProt P0A7C2 1-202; P93002 1-450).
T1 construct: The LexA fusion is stated outright only for the full-length bait
T1 sequence (looked up): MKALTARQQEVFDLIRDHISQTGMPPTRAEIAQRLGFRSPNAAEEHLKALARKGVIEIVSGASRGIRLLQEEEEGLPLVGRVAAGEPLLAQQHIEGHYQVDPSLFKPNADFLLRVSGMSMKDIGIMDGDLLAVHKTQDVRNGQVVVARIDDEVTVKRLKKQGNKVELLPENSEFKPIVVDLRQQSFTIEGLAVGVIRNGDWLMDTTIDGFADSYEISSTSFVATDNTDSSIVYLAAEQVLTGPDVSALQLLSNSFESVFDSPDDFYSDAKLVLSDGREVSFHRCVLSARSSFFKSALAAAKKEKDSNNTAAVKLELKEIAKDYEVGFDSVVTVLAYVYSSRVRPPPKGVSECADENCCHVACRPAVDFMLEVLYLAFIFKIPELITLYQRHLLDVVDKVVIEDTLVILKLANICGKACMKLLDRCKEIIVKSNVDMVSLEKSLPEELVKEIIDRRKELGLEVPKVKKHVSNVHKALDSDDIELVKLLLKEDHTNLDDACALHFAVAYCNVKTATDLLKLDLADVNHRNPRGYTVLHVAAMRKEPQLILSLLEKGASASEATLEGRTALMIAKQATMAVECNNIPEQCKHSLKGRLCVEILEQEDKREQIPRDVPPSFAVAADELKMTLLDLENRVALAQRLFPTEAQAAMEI
The assay can be described thus: yeast two-hybrid (LexA bait, B42 prey; Leu2 and LacZ reporters).

Method: These baits are transformed into yeast strain EGY188, which contains a low sensitivity LexA operator fused to the Leu2 gene, and appropriate tests are performed to determine whether the NIM1 fusion proteins intrinsically activate expression of the yeast reporter genes. […] The library is transformed in combination with one of the three NIM1 baits above and a plasmid containing 2 LexA operators fused to LacZ as a secondary reporter. Approximately 10⁶ transformants are analyzed in screens with each bait, and individual clones that activate both the Leu2 and LacZ reporters are isolated and sequenced by standard procedures.

B1: NI16 clone (Arabidopsis NI16 cDNA clone from the pJG4-5 library, fused to the B42 transcriptional activation domain) (other, not shown: large carriers)
chain: MNNSLKKEERVEEDNGKSDGNRGKPSTEVVRTVTEEEVDEFFKILRRVHVATRTVAKVNGGVAEGELPSKKRKRSQNLGLRNSLDCNGVRDGEFDEINRVGLQGLGLDLNCKPEPDSVSLSL
notes: also called NI16 protein
For B1, the binding result was “no binding”.
